According to publication PMC7830388:
Values belong to the substance of their own block, whether it stands above or below them.

Experiments:
[1] = target: T1, CopR (Pyrococcus furiosus) (UniProt Q8U2U0); experiment: DNase I footprinting; settings: EMSA: 20 nM DNA, 40 mM HEPES pH 7.4, 80 mM (NH4)2SO4, 670 uM DTT, 20 ug/ml BSA, 6.7% glycerol, 50 ng HindIII-digested lambda DNA, 5 min 70 C; DNase I: 4.4 nM …
T1 sequence: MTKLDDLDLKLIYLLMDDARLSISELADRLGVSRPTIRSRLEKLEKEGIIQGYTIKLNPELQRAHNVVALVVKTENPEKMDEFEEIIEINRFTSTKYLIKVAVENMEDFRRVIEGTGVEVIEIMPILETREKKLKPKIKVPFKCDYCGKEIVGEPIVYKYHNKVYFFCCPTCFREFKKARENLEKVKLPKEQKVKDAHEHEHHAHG

[2] = target: T2, TBP;TFB (Pyrococcus furiosus?;Pyrococcus furiosus?) (UniProt P62000+P61998); experiment: DNase I footprinting; settings: EMSA: 20 nM DNA, 40 mM HEPES pH 7.4, 80 mM (NH4)2SO4, 670 uM DTT, 20 ug/ml BSA, 6.7% glycerol, 50 ng HindIII-digested lambda DNA, 5 min 70 C; DNase I: 4.4 nM …
T2 sequence 1: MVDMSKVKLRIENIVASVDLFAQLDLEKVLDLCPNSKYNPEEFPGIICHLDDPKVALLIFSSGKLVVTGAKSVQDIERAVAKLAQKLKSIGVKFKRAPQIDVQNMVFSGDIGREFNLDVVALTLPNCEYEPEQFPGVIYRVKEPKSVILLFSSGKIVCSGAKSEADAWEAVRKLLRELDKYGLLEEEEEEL
T2 sequence 2: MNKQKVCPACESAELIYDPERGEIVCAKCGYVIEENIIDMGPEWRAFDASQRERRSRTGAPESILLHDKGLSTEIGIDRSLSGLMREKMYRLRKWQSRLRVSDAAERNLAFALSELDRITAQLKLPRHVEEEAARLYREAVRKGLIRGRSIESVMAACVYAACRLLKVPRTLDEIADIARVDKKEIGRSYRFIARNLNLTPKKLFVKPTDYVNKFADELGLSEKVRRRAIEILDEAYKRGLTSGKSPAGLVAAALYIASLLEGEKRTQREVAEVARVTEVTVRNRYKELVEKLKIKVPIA

[3] = target: CopR (PF0739), copper-sensing transcriptional regulator of Pyrococcus furiosus (Pyrococcus furiosus); experiment: SEC; Superdex 200 10/300 GL in low salt buffer (40 mM HEPES pH 7.5, 80 mM ammonium sulfate, 1 mM EDTA, 10% glycerol); elution compared to standard calibration proteins
[4] = target: CopRΔTRASH (PF0739 variant lacking the metal-sensing TRASH domain) (Pyrococcus furiosus); experiment: negative-stain transmission electron microscopy with 2D class averaging; 220 ng/μl protein, 2% uranyl acetate with 0.005% DDM; more than 50,000 particles classified in RELION 3.0; in the absence and presence of a DNA template
[5] = target: T3, CopRΔTRASH internal_change (Pyrococcus furiosus) (UniProt Q8U2U0); experiment: EMSA; settings: EMSA: 20 nM DNA, 40 mM HEPES pH 7.4, 80 mM (NH4)2SO4, 670 uM DTT, 20 ug/ml BSA, 6.7% glycerol, 50 ng HindIII-digested lambda DNA, 5 min 70 C; DNase I: 4.4 nM …
T3 sequence: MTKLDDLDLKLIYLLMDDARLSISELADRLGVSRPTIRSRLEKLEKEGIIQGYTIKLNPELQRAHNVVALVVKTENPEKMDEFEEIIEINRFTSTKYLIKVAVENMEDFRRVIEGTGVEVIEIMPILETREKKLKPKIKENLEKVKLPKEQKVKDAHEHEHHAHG

[6] = target: T1, CopR (Pyrococcus furiosus); experiment: EMSA; settings: EMSA: 20 nM DNA, 40 mM HEPES pH 7.4, 80 mM (NH4)2SO4, 670 uM DTT, 20 ug/ml BSA, 6.7% glycerol, 50 ng HindIII-digested lambda DNA, 5 min 70 C; DNase I: 4.4 nM …
[7] = target: T4, CopRΔHISΔTRASH (Pyrococcus furiosus) (UniProt Q8U2U0); experiment: EMSA; settings: EMSA: 20 nM DNA, 40 mM HEPES pH 7.4, 80 mM (NH4)2SO4, 670 uM DTT, 20 ug/ml BSA, 6.7% glycerol, 50 ng HindIII-digested lambda DNA, 5 min 70 C; DNase I: 4.4 nM …
T4 sequence: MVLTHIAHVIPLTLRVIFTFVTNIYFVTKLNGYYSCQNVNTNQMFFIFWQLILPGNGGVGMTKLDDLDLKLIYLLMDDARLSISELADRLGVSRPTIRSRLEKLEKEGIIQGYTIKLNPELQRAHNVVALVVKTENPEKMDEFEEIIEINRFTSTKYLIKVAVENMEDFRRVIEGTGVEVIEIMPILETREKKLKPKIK

[8] = target: T5, CopRΔHIS (Pyrococcus furiosus) (UniProt Q8U2U0); experiment: EMSA; settings: EMSA: 20 nM DNA, 40 mM HEPES pH 7.4, 80 mM (NH4)2SO4, 670 uM DTT, 20 ug/ml BSA, 6.7% glycerol, 50 ng HindIII-digested lambda DNA, 5 min 70 C; DNase I: 4.4 nM …
T5 sequence: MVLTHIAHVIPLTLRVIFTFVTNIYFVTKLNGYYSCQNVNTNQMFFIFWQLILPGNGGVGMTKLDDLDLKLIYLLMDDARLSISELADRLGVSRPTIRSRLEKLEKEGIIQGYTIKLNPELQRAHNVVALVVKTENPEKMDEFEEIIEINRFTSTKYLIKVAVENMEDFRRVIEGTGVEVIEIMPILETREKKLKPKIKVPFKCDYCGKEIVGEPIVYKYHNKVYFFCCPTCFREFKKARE

Substance: GAGTGATCTTCACTTTCGTCACCAATATTTACTTTGTGACGAAACTTAATGGGTATTATTCATGCCAAAATGTAAACACTAACCAAATGTTTTTTATATTTTGGCAACTAATACTCCCAGGGAATGGGGGTGTTGGAATGACCAAGTTAGATG (double strand) [copR/copA promoter region (DNase I footprint)]
- binding [1]: binds
- binding [2]: binds

- stoichiometry N [3]: 8
Substance: CopR (PF0739), copper-sensing transcriptional regulator of Pyrococcus furiosus (natural protein)

- stoichiometry N [4]: 8
Substance: CopRΔTRASH (PF0739 variant lacking the metal-sensing TRASH domain) (natural protein)

Substance: GAGTGATCTTCACTTTCGTCACCAATATTTACTTTGTGACGAAACTTAATGGGTATTATTCATGCCAAAATGTAAACACTAACCAAATGTTTTTTATATTTTGGCAACTAATACTCCCAGGGAATGGGGGTGTTGGAATGACCAAGTTAGATG (double strand) [copR/copA intergenic promoter region (EMSA)]
- binding [5]: binds
- binding [6]: binds
- binding [7]: binds
- binding [8]: binds
